From article PMC13618070

Molecular target: DCR-1•DRH-1 complex (DCR-1•(OSF)DRH-1) (C. elegans) (UniProt P34529)
Experiment: pull-down

percent recovery normalized to WT RDE-4: 8%
Substance: RDE-4 truncation R1R2 (dsRBM1 and dsRBM2, ends with D243) (from UniProt G5EBF5 1-243) (domain or fragment)
